The target of test [1] is T1, Mouse Blade 1-7.
T1 construct: human/mouse chimera on transfected HEK293 cells; also called AA 25-513
T1 MET ECD-SV5-GPI fusion: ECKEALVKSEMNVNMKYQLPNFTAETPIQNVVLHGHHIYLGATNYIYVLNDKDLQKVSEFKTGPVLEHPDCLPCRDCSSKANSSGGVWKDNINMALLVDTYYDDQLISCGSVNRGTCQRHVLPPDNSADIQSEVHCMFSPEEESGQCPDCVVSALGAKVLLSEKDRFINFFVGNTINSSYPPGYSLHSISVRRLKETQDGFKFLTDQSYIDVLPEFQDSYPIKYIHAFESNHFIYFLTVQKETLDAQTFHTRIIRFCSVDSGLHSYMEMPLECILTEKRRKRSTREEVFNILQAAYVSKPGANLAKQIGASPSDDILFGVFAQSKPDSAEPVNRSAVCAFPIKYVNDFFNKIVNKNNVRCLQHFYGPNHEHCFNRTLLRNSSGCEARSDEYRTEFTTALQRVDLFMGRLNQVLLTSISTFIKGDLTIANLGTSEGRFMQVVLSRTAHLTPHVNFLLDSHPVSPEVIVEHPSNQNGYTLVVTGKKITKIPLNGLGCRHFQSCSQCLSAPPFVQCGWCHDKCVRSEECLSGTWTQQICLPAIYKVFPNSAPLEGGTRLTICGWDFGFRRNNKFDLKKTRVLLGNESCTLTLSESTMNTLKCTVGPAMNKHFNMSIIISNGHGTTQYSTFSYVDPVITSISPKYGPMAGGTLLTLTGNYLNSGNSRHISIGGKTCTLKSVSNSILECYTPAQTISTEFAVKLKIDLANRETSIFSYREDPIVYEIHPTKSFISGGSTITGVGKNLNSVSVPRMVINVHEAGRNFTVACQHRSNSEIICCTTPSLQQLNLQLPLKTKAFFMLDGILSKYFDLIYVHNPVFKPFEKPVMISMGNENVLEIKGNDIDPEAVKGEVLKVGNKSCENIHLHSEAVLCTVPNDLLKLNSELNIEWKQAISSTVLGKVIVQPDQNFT
As to the kind of experiment: flow cytometry on transfected HEK293 cells.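 Note: antibodies applied at 50 µg/ml, binding called specific when fluorescence exceeds the mean signal on a negative control chicken or mouse MET construct plus four SD.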
Description: (§1) Cut-off values defined as the average fluorescence signal of all antibodies tested at 50 μg/ml to the negative control chicken or mouse MET construct+four standard deviations were employed to discriminate background binding from specific binding for the domain exchange or blade exchange constructs.

The target of test [2] is T2, LS3.
T2 construct: human/mouse chimera on transfected HEK293 cells; also called AA 25-312
T2 MET ECD-SV5-GPI fusion: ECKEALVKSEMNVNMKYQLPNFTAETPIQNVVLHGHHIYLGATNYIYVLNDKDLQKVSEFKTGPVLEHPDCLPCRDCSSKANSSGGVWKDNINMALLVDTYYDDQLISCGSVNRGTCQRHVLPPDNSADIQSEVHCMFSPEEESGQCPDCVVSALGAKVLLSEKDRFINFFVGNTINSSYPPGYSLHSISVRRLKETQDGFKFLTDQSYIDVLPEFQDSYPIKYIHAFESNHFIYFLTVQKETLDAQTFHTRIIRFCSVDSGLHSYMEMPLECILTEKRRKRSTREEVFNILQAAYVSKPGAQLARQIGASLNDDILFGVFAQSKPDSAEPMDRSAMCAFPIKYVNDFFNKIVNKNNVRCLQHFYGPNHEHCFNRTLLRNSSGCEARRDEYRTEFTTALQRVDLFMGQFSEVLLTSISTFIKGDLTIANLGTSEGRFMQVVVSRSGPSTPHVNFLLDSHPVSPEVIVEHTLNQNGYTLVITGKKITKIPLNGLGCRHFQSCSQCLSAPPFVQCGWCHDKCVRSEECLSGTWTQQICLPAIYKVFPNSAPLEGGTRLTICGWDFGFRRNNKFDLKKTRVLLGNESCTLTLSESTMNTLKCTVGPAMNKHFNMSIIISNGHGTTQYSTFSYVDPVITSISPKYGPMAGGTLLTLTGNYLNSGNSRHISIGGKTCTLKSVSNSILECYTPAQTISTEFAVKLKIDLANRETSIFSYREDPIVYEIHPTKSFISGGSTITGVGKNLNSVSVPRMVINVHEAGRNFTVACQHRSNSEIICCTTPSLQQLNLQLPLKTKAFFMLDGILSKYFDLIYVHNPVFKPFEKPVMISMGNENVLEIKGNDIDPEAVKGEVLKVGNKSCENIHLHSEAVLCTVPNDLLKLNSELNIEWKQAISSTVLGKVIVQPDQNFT
As to the kind of experiment: flow cytometry on transfected HEK293 cells.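 Note: antibodies applied at 50 µg/ml, binding called specific when fluorescence exceeds the mean signal on a negative control chicken or mouse MET construct plus four SD.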 In general terms: In flow cytometry, cells or beads pass a laser one at a time.
Description: as §1

Test [3] concerns the target T3, His tagged human MET ECD (Sinobiological) (human, UniProt P08581 25-932).
T3 construct: Bought monovalent antigen; also called human MET antigen; not shown: His tag
Briefly: BLI (Octet QK384); antibody captured on anti-human Fc sensors, monovalent MET ECD in solution, 1:1 Langmuir fit.

In test [4] the target is T3, His tagged human MET ECD …. Briefly: SPR (Bio-Rad XPR-36); antibody captured on anti-human IgG Fc surface, MET ECD 25 to 1.56 nM, 1:1 Langmuir fit.
Description: His tagged human or cynomolgus MET ECD antigens were purchased from Sinobiological, China. […] Measurements were conducted with a plate rotation speed of 1000 rpm and sensors were regenerated and reused by brief 5 second alternations between exposure to 10 mM Glycine:HCl buffer (pH 1.5) or PBS buffer containing 1% BSA and 0.001% Tween 20 three times. For the Surface Plasmon Resonance experiments conducted on the Bio-Rad XPR-36 instrument, anti-MET antibodies were adjusted to a concentration of 0.25-0.5 μg/ml and captured on anti-human IgG Fc surfaces generated by immobilizing a monoclonal anti-human Fc antibody (Biacore, Denmark). […] The recorded binding responses were fitted to a simple Langmuir 1:1 binding model for calculation of the on-rate (kon or ka), off-rate (koff or kd) and affinity (KD) constants using double referencing.

B1: humanized antibody 9006 (antibody, human IgG1, kappa, V domains shown)
VH: QVQLVQSGSELKKPGASVKVSCKASGYTFTNFRMNWVKQAPGQGLKWMGWINTYTGEPTYVDDLKGRFVFSLDTSVSTAYLQISSLKAEDTAVYYCARKGIARAMDYWGQGTTVTVSS
VL: DIVMTQSPDSLAVSLGERATINCKSSQSLLDSGNQKNYLAWYQQKPGQPPKLLIFGASTRESGVPDRFSGSGSGTDFTLTISSLQAEDVAVYYCQNDHSYPYTFGQGTKLEIKR
notes: also called Hu9006; hu9006
Take B1: the binding result in test [1] and in test [2] was “no binding (tested: 50 µg/ml)” in each case. For the same molecule, the dissociation constant (Kd) turned out to be 1.2 nM in test [3] and 0.055 nM in test [4]. Also, the koff came out at 7.6e-05 s⁻¹ in test [3] and 1.1e-05 s⁻¹ in test [4]. In addition, the results for the kon in test [3] and in test [4] were 62000 M⁻¹ s⁻¹ and 190000 M⁻¹ s⁻¹, respectively.

B2: humanized antibody 9338 (antibody, human IgG1, kappa, V domains shown)
VH: QVQLVQSGAEVKKPGSSVKVSCKASGYTFTSYWMHWVRQAPGQGLEWMGYINPSSGHIENNQKFKDRVTITADKSTSTAYMELSSLRSEDTAVYYCARGRFAYWGQGTLVTVSS
VL: EIVLTQSPATLSLSPGERATLSCSASSSVSSGYLYWYQQKPGQAPRLLIYSTSNLASGIPARFSGSGSGTDFTLTISSLEPEDFAVYYCHQWSSYPFTFGSGTKLEIKR
notes: also called Hu9338; hu9338
For B2, the binding result in test [1] and in test [2] was “no binding (tested: 50 µg/ml)” throughout.

Broadly, the Kd is the concentration at which binding is half-saturated. High values mean a looser complex, low ones a tighter complex. As usually defined, the koff is a measure of how fast the partners let go of each other. High values mean a short-lived complex, low ones a long-lived complex. What is called kon is the rate constant with which the complex forms. A low value points to slower complex formation.
